Assay results from the supplement of paper PMC9170038.

System: MS2 coat protein
Assay: apparent KD of MS2 coat protein; designed switch direction (-1 OFF switch, 1 ON switch): -1; higher = weaker reporter binding
Summary of the method: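 Normalised cluster fluorescence was curve-fitted, and each design's median over clusters is its apparent KD. Before this, SNAP-549-labelled MS2 coat protein was titrated from 0.7 or 1.5 nM, doubling to 3 µM, over RNA switches transcribed on Illumina chips by stalled E. coli RNA polymerase. Titrations had no input, 200 uM small-molecule ligand, or an oligonucleotide input, and steps lasted 0.8–1.5 h (lowest) to 10–20 min (highest).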

[1] = Eterna round: R95, input ligand: microRNA oligo, concentration not stated
[2] = input ligand: microRNA oligo, concentration not stated
[3] = Eterna round: R95, input ligand: FMN 200 uM
[4] = Eterna round: R95, input ligand: none

| Sequence | apparent KD of MS2 coat protein (input ligand: FMN 200 uM) [nM] | apparent KD of MS2 coat protein (input ligand: none) [nM] | apparent KD of MS2 coat protein [1] [nM] | apparent KD of MS2 coat protein [2] [nM] | apparent KD of MS2 coat protein [3] [nM] | apparent KD of MS2 coat protein [4] [nM] |
| --- | --- | --- | --- | --- | --- | --- |
| AGAGUGUGAGGAUAUACAUGAGGAUCACCCAUGUAAUAACAGGUUACGGGCGGCACCAGUAGAAGGCACUUGUC [Eternabot (L2) Solution 22] (Eterna round: R97, puzzle: Exclusion 3) | 42 | 28.2 |  |  |  |  |
| AGAUCACAUGAGGAUCACCCAUGUCAGGAUAUCAUCAUUGAAGCUUCGGCUUCAAUGAUGAGAAGGGACAUAAU [E1/2-B1] (Eterna round: R97, puzzle: Exclusion 1) | 297 | 598 |  |  |  |  |
| AGAUCACAUGAGGAUCACCCAUGUCAGGAUAUCGUCACUGGAGCUUCGGCUCCAGUGACGAGAAGGGACAAUUA [E1/1-A3] (Eterna round: R97, puzzle: Exclusion 1) | 304 | 161 |  |  |  |  |
| AGAUCCUGAGUCAGGAUAUAGAGGCGAAAGCCUGGCUAGAAGGGACAUGAGGAUCACCCAUGUGGGUUCGUGCC [Geariat] (puzzle: Brourd's mod of Exclusion 4) |  |  | 19.6 |  |  |  |
| AGAUGCUCAAGUCGACAUGAGGAUCACCCAUGUACAGUUAAUGAGGAUAUCUGAGACAAAUAGUAGGAGAAGGCGUGAACAUGA [Ex NG3 #10] (Eterna round: R96, puzzle: Exclusion NG 3) | 55.2 | 57.6 |  | 26.5 |  |  |
| AGAUGUAGAAACCGAUCCUACAUGAGGAUCACCCAUGUAGCAAGACGUGCACGCGAAGCUCGUCAGACUACCAGAAG [salish99_TOv1_r3_082] (puzzle: Sensor v3, turn-off variant 1) |  |  | 188 |  | 270 | 352 |
| AGAUGUAGAUACCGGUCCUACAUGAGGAUCACCCAUGUAGCUUGACGUGCGGGCGGCGCUCGUCGGUCUACCAGUAG [salish99_TOv1_r3_100] (puzzle: Sensor v3, turn-off variant 1) |  |  | 28.6 |  | 27.3 | 36.2 |
| AGAUUACGUUAGGAUAUCCGGCCUGACGAGGAUGGAGAAGGAGCGACAUGAGGAUCACCCAUGUGUGGCACUCC [Eternabot (L1) Solution 76] (Eterna round: R97, puzzle: Exclusion 6) | 17.7 | 18.3 |  |  |  |  |
| AGCAGCCAAUCAGGAUAUACUUUCAGGUGAAGCGUCGCGGGCGAUAACAUGAGGAUCACCCAUGUGUAGAAGGGAUGCGCAAAC [Eternabot solution 39] (Eterna round: R96, puzzle: Exclusion NG 2) | 45.8 | 41.2 |  | 30.3 |  |  |
| AGCAUGCAGUAGGAUAUCGAUCCGCAAUAUGAACGAGAAGGGCUGACAUGAGGAUCACCCAUGUGCGUCCUAGG [jl-ex6-4.40 ViennaUCT mod] (Eterna round: R97, puzzle: Exclusion 6) | 19.4 | 20.2 |  |  |  |  |
| AGCCAUACAGGAUAUGCCCGGGAUAACAUGAGGAUCACCCAUGUGACCGAUUCAUGUCCUGCAGAAGGGUAUGGGA [Mod of ViennaUCT 3 - Jieux - Exclusion 5] (Eterna round: R97, puzzle: Exclusion 5) | 31.7 | 16.8 |  |  |  |  |
| AGCGAGGCAGGAUAUACAUGAGGAUCACCCAUGUACUUGUAUGGCGUGGAACAUCGUGGUAGAAGGGCCGCGCC [EX3 #79] (Eterna round: R97, puzzle: Exclusion 3) | 33.5 | 23.7 |  |  |  |  |
| AGCGGAGAUGUCAGGAUAUCUCGCUCGGUGGGUUGAGAGAAGGGACAUGAGGAUCACCCAUGUCUGCAAUUGUC [Eternabot (Original) Solution 46] (Eterna round: R97, puzzle: Brourd's mod of Exclusion 4) | 19.9 | 17.9 |  |  |  |  |
| AGCGUGGCUCAGGAUAUCAGCCCUGUGGAGUUCUGAGAAGGGAGCACAUGAGGAUCACCCAUGUGAAAGGGUAC [Useratarin] (puzzle: Exclusion 6) |  |  | 24.7 |  | 103 | 29.7 |
| AGCUAGUCAGGAUAUACGCAAACGAACGAAGCAGUGAAGGGACAUGAGGAUCACCCAUGUAGAAGGGACUAGCA [Diamond 30] (Eterna round: R96, puzzle: Exclusion 2) | 121 | 24.9 |  | 17.4 |  |  |
| AGCUGUGGCCGAGGAUAUCACAUGAGGAUCACCCAUGUACAUGAUUAGGCCUGGUAACAGGCUCAUGAGAAGGCGGUCUCAGCA [Eli eng2 - 013] (Eterna round: R96, puzzle: Exclusion NG 2) | 16.1 | 22.4 |  | 16.4 |  |  |
| AGCUGUGGCCGAGGAUAUCACGAACCAUGGAAAACCAUGGAACUCAUACAUGAGGAUCACCCAUGUGAGAAGGCGGUCUCAGCA [Eli eng2 - 019] (Eterna round: R96, puzzle: Exclusion NG 2) |  |  |  | 27 |  |  |
| AGCUGUGGCCGAGGAUAUCCAACUUCAAAUACCGACGUAUAGUCGGACAUGAGGAUCACCCAUGUGGAGAAGGCGGUCUCAGCA [Eli eng2 - 038] (Eterna round: R96, puzzle: Exclusion NG 2) | 24.2 | 15.6 |  | 12.5 |  |  |
| AGCUGUGGCCGAGGAUAUCCACAUGAGGAUCACCCAUGUGAAUACCCAAUUAAGGGAUAACCGUGGGAGAAGGCGGUCUCAGCA [Eli eng2 - 048] (Eterna round: R96, puzzle: Exclusion NG 2) | 80.9 | 167 |  | 112 |  |  |
| AGCUGUGGCCGAGGAUAUCCAGCCUUAAAUACCGACGUAUAGUCGGACAUGAGGAUCACCCAUGUGGAGAAGGCGGUCUCAGCA [Eli eng2 - 045] (Eterna round: R96, puzzle: Exclusion NG 2) | 126 | 43.6 |  | 36.4 |  |  |
| AGCUGUGGCCGAGGAUAUCUAAACCUCAAAACCGAGGUAUACUCGGACAUGAGGAUCACCCAUGUAGAGAAGGCGGUCUCAGCA [Eli eng2 - 036] (Eterna round: R96, puzzle: Exclusion NG 2) | 107 | 443 |  | 190 |  |  |
| AGCUGUGGCCGAGGAUAUCUAAUAACUCAAACCGAAAUAUAAUCGGACAUGAGGAUCACCCAUGUAGAGAAGGCGGUCUCAGCA [Eli eng2 - 063] (Eterna round: R96, puzzle: Exclusion NG 2) |  |  |  | 69.8 |  |  |
| AGCUGUGGCCGAGGAUAUCUGUUCCAAAUAACCGACGUAUAGUCGGACAUGAGGAUCACCCAUGUAGAGAAGGCGGUCUCAGCA [Eli eng2 - 101] (Eterna round: R96, puzzle: Exclusion NG 2) | 136 | 63.9 |  | 38 |  |  |
| AGCUUUGGAGGAUAUUGAGCGGAAAACAUGAGGAUCACCCAUGUAAGUGGGCGAAAUGUAUAAGAAGGCCGAAGGU [Eternabot (L2) Solution 15] (Eterna round: R97, puzzle: Exclusion 5) | 205 | 278 |  |  |  |  |
| AGCUUUUUGCUCGUCUUAUACAUGAGGAUCACCCAUGUAUUGGACCACAUCGAUAGAUGUGGACCAAGAAGCAUGGG [Omdei Mir OFFv1 C1] (Eterna round: R97, puzzle: Sensor, turn-off variant 1) | 195 | 109 |  |  |  |  |
